From patent publication US20240116985A1, “STAPLED PEPTIDES AND METHODS THEREOF” (priority 2020, published 2024)
Starred links: 1 amine or outer side, 2 acyl side, 3 side chain; linkers in the order of their positions; H or OH if unused. Positions of bridges follow the written chain, without caps; N, C: chain ends. Non-standard residues stand in square brackets, D forms with d. Primed or numbered codes have the meaning given here. PyrS2″ = (S)-3-amino-1-((pent-4-en-1-yloxy)carbonyl)pyrrolidine-3-carboxylic acid (stapling residue), C=CCCCOC(=O)N1CC[C@@](N[*:1])(C(=O)[*:2])C1; (bismethoxyethylamine)GlnR = [bismethoxyethylamine]GlnR, N5,N5-bis(2-methoxyethyl)-L-glutamine, COCCN(CCOC)C(=O)CC[C@H](N[*:1])C(=O)[*:2]; B5(4) = 2,2-bis(4-pentenyl)glycine = 2-amino-2-(pent-4-en-1-yl)hept-6-enoic acid (stitching residue), C=CCCCC(CCCC=C)(N[*:1])C(=O)[*:2]; B5(5) = 2,2-bis(4-pentenyl)glycine, 2-amino-2-(pent-4-en-1-yl)hept-6-enoic acid (stitching residue), C=CCCCC(CCCC=C)(N[*:1])C(=O)[*:2]; 5F3Me3COOHF = (S)-3-(2-amino-2-carboxyethyl)-5-(trifluoromethyl)benzoic acid, O=C([C@H](Cc1cc(C(=O)[*:3])cc(C(F)(F)F)c1)N[*:1])[*:2]; TfeGA = (S)-2-amino-3-((carboxymethyl)(2,2,2-trifluoroethyl)amino)propanoic acid, O=C([C@H](CN(CC(=O)[*:3])CC(F)(F)F)N[*:1])[*:2]; PyrS2 = (S)-3-amino-1-((pent-4-en-1-yloxy)carbonyl)pyrrolidine-3-carboxylic acid, C=CCCCOC(=O)N1CC[C@@](N[*:1])(C(=O)[*:2])C1; B5(19) = 2-amino-2-(pent-4-en-1-yl)hept-6-enoic acid (bis(4-pentenyl)glycine), C=CCCCC(CCCC=C)(N[*:1])C(=O)[*:2]; 4F3COOHF = (S)-5-(2-amino-2-carboxyethyl)-2-fluorobenzoic acid, O=C([C@H](Cc1ccc(F)c(C(=O)[*:3])c1)N[*:1])[*:2]; B5(25) = 2-amino-2-(pent-4-en-1-yl)hept-6-enoic acid (stitching residue), C=CCCCC(CCCC=C)(N[*:1])C(=O)[*:2]; (CyPr)‑3SF = (S)-2-amino-3-(3-cyclopropylphenyl)propanoic acid, O=C([C@H](Cc1cccc(C2CC2)c1)N[*:1])[*:2]; B5(3) = 2,2-bis(4-pentenyl)glycine (stitching residue), C=CCCCC(CCCC=C)(N[*:1])C(=O)[*:2]; B5 = 2-amino-2-(pent-4-en-1-yl)hept-6-enoic acid, C=CCCCC(CCCC=C)(N[*:1])C(=O)[*:2]; PyrR = (R)-1-((allyloxy)carbonyl)-3-aminopyrrolidine-3-carboxylic acid; RbGlu = 3-aminopentanedioic acid, R/S prefix not explained; SbGlu = 3-aminopentanedioic acid, R/S prefix not explained; Phe(3-Ph) = N[C@@H](Cc1cccc(-c2ccccc2)c1)C(=O)O; Phe(3-COOH) = N[C@@H](Cc1cccc(C(=O)O)c1)C(=O)O; 2F3MeF = Cc1cccc(C[C@H](N[*:1])C(=O)[*:2])c1F; Phe(2-CF3) = N[C@@H](Cc1ccccc1C(F)(F)F)C(=O)O; Ala(4-thiazolyl) = N[C@@H](Cc1cscn1)C(=O)O; Phe(4-Cl) = N[C@@H](Cc1ccc(Cl)cc1)C(=O)O; Phe(2-Cl) = N[C@@H](Cc1ccccc1Cl)C(=O)O; dαMeGly(allyl) = C=CC[C@@](C)(N)C(=O)O; Bta = N[C@@H](Cc1csc2ccccc12)C(=O)O; Lys(iPr) = CC(C)NCCCC[C@H](N)C(=O)O; αAllylPro = C=CC[C@@]1(C(=O)O)CCCN1; tBuAla = CC(C)(C)C[C@H](N)C(=O)O; 2Thi = N[C@@H](Cc1cccs1)C(=O)O; 3Thi = N[C@@H](Cc1ccsc1)C(=O)O; Cha = N[C@@H](CC1CCCCC1)C(=O)O; S8 = C=CCCCCCC[C@](C)(N)C(=O)O; R5 = C=CCCC[C@@](C)(N)C(=O)O; hSer = N[C@@H](CCO)C(=O)O; 34ClF = not defined here; Nle = CCCC[C@H](N)C(=O)O; Abu = CC[C@H](N)C(=O)O; Aib = CC(C)(N)C(=O)O

Legend:
[1] = biological target: full-length beta-Catenin (Uniprot ID P35222) (Homo sapiens (Human)) (UniProt P35222); assay: fluorescence polarization competition; competitor 5FAM-TCF4(10-53) on full-length beta-catenin
Target sequence in this assay (P35222 whole entry, one chain of several): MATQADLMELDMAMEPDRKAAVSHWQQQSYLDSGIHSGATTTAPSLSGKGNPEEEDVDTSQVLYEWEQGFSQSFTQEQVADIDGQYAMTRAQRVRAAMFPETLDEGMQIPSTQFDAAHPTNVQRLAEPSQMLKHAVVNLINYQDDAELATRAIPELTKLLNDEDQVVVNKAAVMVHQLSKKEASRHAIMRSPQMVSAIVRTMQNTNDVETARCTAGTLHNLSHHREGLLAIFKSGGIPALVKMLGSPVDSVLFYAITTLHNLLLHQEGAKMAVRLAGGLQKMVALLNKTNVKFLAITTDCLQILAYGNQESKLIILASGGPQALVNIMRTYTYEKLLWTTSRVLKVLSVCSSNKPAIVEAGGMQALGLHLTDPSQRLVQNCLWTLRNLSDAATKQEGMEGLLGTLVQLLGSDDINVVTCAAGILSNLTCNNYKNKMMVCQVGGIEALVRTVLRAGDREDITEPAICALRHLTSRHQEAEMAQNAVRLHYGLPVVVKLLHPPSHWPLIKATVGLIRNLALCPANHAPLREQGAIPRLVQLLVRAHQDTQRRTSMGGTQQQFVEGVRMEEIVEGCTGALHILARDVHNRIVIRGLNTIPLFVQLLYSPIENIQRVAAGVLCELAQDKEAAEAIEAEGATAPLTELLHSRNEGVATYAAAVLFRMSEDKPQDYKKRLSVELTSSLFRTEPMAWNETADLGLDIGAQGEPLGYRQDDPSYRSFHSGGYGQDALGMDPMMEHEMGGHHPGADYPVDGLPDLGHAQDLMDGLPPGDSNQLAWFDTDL

Bcat-Halo = Bcat-Halo (UniProt P35222); assay: NanoBRET Abs IC50, Bcat-Halo/TCF4-Luc in HEK293 cells
Sequence of Bcat-Halo (P35222 whole entry): as the sequence (P35222 whole entry, one chain of several) above

[2] = biological target: full-length beta-Catenin (Uniprot ID P35222) (Homo sapiens (Human)) (UniProt P35222); assay: fluorescence polarization competition against 5FAM-TCF4 10-53
Target sequence in this assay (P35222 whole entry, one chain of several): as above

[3] = biological target: full-length beta-Catenin (Uniprot ID P35222) (Homo sapiens (Human)) (UniProt P35222); assay: fluorescence polarization competition; 10 nM full-length beta-catenin + 10 nM 5FAM-TCF4(10-53), peptide titrated
Target sequence in this assay (P35222 whole entry, one chain of several): as above

[4] = biological target: full-length beta-Catenin (Uniprot ID P35222) (Homo sapiens (Human)) (UniProt P35222); assay: fluorescence polarization competition, full-length beta-catenin with 5FAM-TCF4(10-53) probe as competitor
Target sequence in this assay (P35222 2-781 limits assumed): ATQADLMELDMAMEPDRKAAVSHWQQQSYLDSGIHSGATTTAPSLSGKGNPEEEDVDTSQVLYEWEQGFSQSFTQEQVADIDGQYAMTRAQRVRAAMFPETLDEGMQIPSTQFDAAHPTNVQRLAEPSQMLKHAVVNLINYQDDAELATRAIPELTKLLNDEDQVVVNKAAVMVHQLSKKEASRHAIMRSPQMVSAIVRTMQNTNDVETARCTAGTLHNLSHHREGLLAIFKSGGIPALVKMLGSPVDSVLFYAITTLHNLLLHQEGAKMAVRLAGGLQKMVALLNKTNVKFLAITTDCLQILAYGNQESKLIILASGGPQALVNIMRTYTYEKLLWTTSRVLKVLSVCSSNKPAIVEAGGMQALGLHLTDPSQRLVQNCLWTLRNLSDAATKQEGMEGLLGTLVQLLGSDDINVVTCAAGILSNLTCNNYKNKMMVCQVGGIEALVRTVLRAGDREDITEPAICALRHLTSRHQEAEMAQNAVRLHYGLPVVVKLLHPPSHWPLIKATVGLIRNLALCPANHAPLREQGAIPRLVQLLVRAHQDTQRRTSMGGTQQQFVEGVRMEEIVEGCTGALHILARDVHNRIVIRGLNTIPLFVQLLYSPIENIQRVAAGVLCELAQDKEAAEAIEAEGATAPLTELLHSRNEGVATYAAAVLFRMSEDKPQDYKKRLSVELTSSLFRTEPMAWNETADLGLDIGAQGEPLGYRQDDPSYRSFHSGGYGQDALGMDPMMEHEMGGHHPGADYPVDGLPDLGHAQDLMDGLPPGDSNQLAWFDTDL

[5] = biological target: full-length beta-Catenin (Uniprot ID P35222) (Homo sapiens (Human)) (UniProt P35222); assay: fluorescence polarization competition; full-length beta-catenin, competitor 5FAM-TCF4(10-53) probe
Target sequence in this assay (P35222 whole entry, one chain of several): as the sequence (P35222 whole entry, one chain of several) above

[6] = biological target: Bcat-Halo (beta-catenin HaloTag construct expressed in HEK293 cells) (UniProt P35222); assay: NanoBRET target engagement in HEK293 cells, absolute IC50; competitor TCF4-Luc
Sequence of Bcat-Halo (beta-catenin HaloTag construct expressed in HEK293 cells) (P35222 whole entry): as the sequence (P35222 whole entry, one chain of several) above

[7] = biological target: full-length beta-Catenin (Uniprot ID P35222) (Homo sapiens (Human)) (UniProt P35222); assay: fluorescence polarization competition; competitor 5FAM-TCF4 10-53
Target sequence in this assay (P35222 whole entry, one chain of several): as above

B1: I-2569 (peptide)
peptide: Ac-[PyrR]ED[tBuAla][B5(25)]D[Phe(3-COOH)]AAFL[PyrS2″][Phe(2-CF3)][Bta]Q-NH2
modifications: staple 1-5, 5-12 (inferred); not fully specified; printed as Ac-PyrR-Glu-Asp-Npg-B5-Asp-3COOHF-Ala-Ala-Phe-Leu-PyrS2-2F3MeF-BztA-Gln-NH2
[1]
  IC50: 1950 nM

## Ac-[αAllylPro]D[tBuAla][B5(5)]D[5F3Me3COOHF]QAFL[PyrS2][3Thi][Bta]A-NH2 (staple 1-4, 4-11) [I-2211]
Bcat-Halo
  IC50: 12900 nM
[2]
  IC50: 23 nM

## Ac-P[dαMeGly(allyl)]D[tBuAla][B5(4)]D[Phe(3-COOH)]AAFL[PyrS2″][Phe(2-CF3)][Bta]Q-NH2 (staple 5-12, 2-5; also: -CH=CH- in each staple reduced to -CH2-CH2-) [I-2572]
[1]
  IC50: 67 nM

## Ac-[αAllylPro]D[tBuAla][B5(3)]D[Phe(3-COOH)]AAFL[PyrS2″][Phe(3-Ph)]FQ-NH2 (staple 1-4, 4-11) [I-2214]
[2]
  IC50: 1860 nM

## Ac-[αAllylPro]D[tBuAla][B5(4)]D[Phe(3-COOH)]AAFL[PyrS2″][Phe(2-CF3)][Bta][dA]-NH2 (staple 1-4, 4-11) [I-2091]
[3]
  IC50: 49 nM

## Ac-[αAllylPro]D[tBuAla][B5(4)]D[Phe(3-COOH)]AAFF[PyrS2″][Phe(2-CF3)][Bta][dQ]-NH2 (staple 1-4, 4-11) [I-2093]
[3]
  IC50: 43 nM

## Ac-[αAllylPro]DI[B5(4)]DE[Nle]AFQ[S8]F[Bta]Q-NH2 (staple 1-4, 4-11) [I-656]
[4]
  EC50: 73 nM
[5]
  IC50: 73 nM

## Ac-[αAllylPro]D[tBuAla][B5(4)]D[Phe(3-COOH)]AAFF[PyrS2″][2F3MeF][Bta][dA]-NH2 (staple 1-4, 4-11) [I-2095]
[3]
  IC50: 78 nM

## Ac-[αAllylPro]D[tBuAla][B5(3)]D[Phe(3-COOH)]AAFL[PyrS2″][3Thi][34ClF]Q-NH2 (staple 1-4, 4-11; reading uncertain) [I-2216]
Bcat-Halo
  IC50: 3400 nM
[2]
  IC50: 7 nM

## Ac-[αAllylPro]D[tBuAla][B5]D[TfeGA][Aib]GFT[PyrS2][Phe(2-Cl)][Bta]Q-NH2 (staple 1-4, 4-11) [I-1696]
[6]
  IC50: 35500 nM
[7]
  IC50: 32 nM

## Ac-[αAllylPro]N[Cha][B5(5)]DQ[Lys(iPr)]AFN[PyrS2″][2Thi][Bta][hSer]-NH2 (staple 1-4, 4-11) [I-2075]
[3]
  IC50: 2330 nM

## Ac-[αAllylPro]N[Cha][B5(5)]DQ[Lys(iPr)]AFN[PyrS2″][3Thi][Bta][hSer]-NH2 (staple 1-4, 4-11) [I-2074]
[3]
  IC50: 789 nM

## Ac-[αAllylPro]DI[B5(4)]DEA[Nle]FQ[S8]F[Bta]Q-NH2 (staple 1-4, 4-11) [I-667]
[4]
  EC50: 585 nM
[5]
  IC50: 585 nM

## Ac-[αAllylPro][SbGlu]I[B5(4)]DEAAFQ[S8]F[Bta]Q-NH2 (staple 1-4, 4-11) [I-672]
[4]
  EC50: 5000 nM
[5]
  IC50: 5000 nM

## Ac-[αAllylPro]D[tBuAla][B5(4)]D[Phe(3-COOH)][Aib]AF[Abu][PyrS2″][3Thi][Bta][(bismethoxyethylamine)GlnR]-NH2 (staple 1-4, 4-11) [I-2559]
[1]
  IC50: 8 nM

## Ac-[αAllylPro]D[tBuAla][B5(5)]D[4F3COOHF]QAFL[PyrS2][3Thi][Bta]A-NH2 (staple 1-4, 4-11) [I-2206]
Bcat-Halo
  IC50: 7100 nM
[2]
  IC50: 7 nM

## Ac-P[R5]D[tBuAla][B5(25)]D[Phe(3-COOH)]AAFL[PyrS2″][Phe(2-CF3)][Bta]Q-NH2 (staple 5-12, 2-5; also: staple -CH=CH- reduced to -CH2-CH2-) [I-2573]
[1]
  IC50: 234 nM

## Ac-P[R5]D[tBuAla][B5(25)]D[Phe(3-COOH)]AAFL[PyrS2″][Phe(2-CF3)][Bta]Q-NH2 (staple 5-12, 2-5) [I-2567]
[1]
  IC50: 522 nM

## Ac-[αAllylPro]N[Cha][B5(5)]DQ[Lys(iPr)]A[Ala(4-thiazolyl)]N[PyrS2″]F[Bta][hSer]-NH2 (staple 1-4, 4-11) [I-2072]
[3]
  IC50: 8260 nM

## Ac-[αAllylPro]N[Cha][B5(5)]DQ[Lys(iPr)]AFN[PyrS2″][Ala(4-thiazolyl)][Bta][hSer]-NH2 (staple 1-4, 4-11) [I-2071]
[3]
  IC50: 592 nM

## Ac-[αAllylPro]D[tBuAla][B5(3)]D[Phe(3-COOH)]AAFL[PyrS2″][2F3MeF][34ClF]S-NH2 (staple 1-4, 4-11; reading uncertain) [I-2218]
Bcat-Halo
  IC50: 5100 nM
[2]
  IC50: 34 nM

## Ac-[αAllylPro]D[tBuAla][B5(3)]D[Phe(3-COOH)]AAFL[PyrS2″][(CyPr)‑3SF]FQ-NH2 (staple 1-4, 4-11) [I-2215]
[2]
  IC50: 1540 nM

## Ac-P[dαMeGly(allyl)]D[tBuAla][B5(25)]D[Phe(3-COOH)]AAFL[PyrS2″][Phe(2-CF3)][Bta]Q-NH2 (staple 5-12, 2-5) [I-2566]
[1]
  IC50: 181 nM

## Ac-[αAllylPro]DI[B5(4)][RbGlu]EAAFQ[S8]F[Bta]Q-NH2 (staple 1-4, 4-11) [I-675]
[4]
  EC50: 4520 nM
[5]
  IC50: 4520 nM

## Ac-[αAllylPro]D[tBuAla][B5(3)]D[Phe(3-COOH)]QAFL[PyrS2″][2F3MeF][34ClF]A-NH2 (staple 1-4, 4-11; reading uncertain) [I-2219]
Bcat-Halo
  IC50: 2700 nM
[2]
  IC50: 21 nM

## Ac-[αAllylPro]D[tBuAla][B5(3)]D[Phe(3-COOH)]AAFL[PyrS2″][3Thi][Phe(4-Cl)]Q-NH2 (staple 1-4, 4-11) [I-2220]
Bcat-Halo
  IC50: 16300 nM
[2]
  IC50: 12 nM

## Ac-[αAllylPro]D[tBuAla][B5(4)]D[Phe(3-COOH)][Aib]AF[Nle][PyrS2″][3Thi][Bta][(bismethoxyethylamine)GlnR]-NH2 (staple 1-4, 4-11) [I-2554]
[1]
  IC50: 8 nM

## Ac-[αAllylPro]DI[B5(19)]DEA[Nle]FQ[S8]F[Bta]Q-NH2 (staple 1-4, 4-11) [I-666]
[4]
  EC50: 626 nM
[5]
  IC50: 626 nM

B2: I-2568 (peptide)
peptide: Ac-[PyrR]AD[tBuAla][B5(25)]D[Phe(3-COOH)]AAFL[PyrS2″][Phe(2-CF3)][Bta]Q-NH2
modifications: staple 1-5, 5-12 (inferred); not fully specified; printed as Ac-PyrR-Ala-Asp-Npg-B5-Asp-3COOHF-Ala-Ala-Phe-Leu-PyrS2-2F3MeF-BztA-Gln-NH2
[1]
  IC50: 4770 nM

## Ac-[αAllylPro]DI[B5(4)][SbGlu]EAAFQ[S8]F[Bta]Q-NH2 (staple 1-4, 4-11) [I-676]
[4]
  EC50: 5000 nM
[5]
  IC50: 5000 nM

## Ac-[αAllylPro]N[Cha][B5(5)]DQ[Lys(iPr)]AFN[PyrS2″]F[Bta]-NH2 (staple 1-4, 4-11) [I-2073]
[3]
  IC50: 398 nM

## Ac-[αAllylPro]DI[B5(4)]DE[Nle]AFQ[S8]F[Bta]Q-NH2 (staple 1-4, 4-11) [I-657]
[4]
  EC50: 46 nM
[5]
  IC50: 46 nM
